Data taken from patent publication US20230355541A1, “ENZYMATICALLY CLEAVABLE SELF-ASSEMBLED NANOPARTICLES FOR MORPHOGEN DELIVERY” (UNIVERSITY OF SOUTH CAROLINA, priority 2019, published 2023).

Biological target: T1, BSA (Bos taurus, UniProt P02769)
T1 construct: purchased Jackson ImmunoResearch (West Grove, Pa.)
Experiment: Circular dichroism of BSA grafted to PxSPCP NPs
Type: physicochemical, bovine
Conditions: PBS, 20° C.
Procedure: Bioactivity and Cell Compatibility of BMP2-PxSPCP NPs: Circular dichroism (CD) was used to determine the effect of grafting on secondary structure of the model BSA protein. CD spectra of free or grafted BSA in PBS were collected with a spectropolarimeter (JASCO J815, Essex, UK) at 20° C. with a cuvette of 0.1 cm path length. For evaluation of cell compatibility, hMSCs (1×10^6 cells/mL) and PxSPCP NPs (10 mg) were encapsulated in LPELA hydrogel and cultured in basal medium. At each time point, the hydrogels were stained with cAM/EthD live/dead assay (1 μg/mL) and the stained cells were imaged with an inverted fluorescent microscope (Nikon Eclipse Ti-ε, Nikon, Melville, N.Y.). To quantify cell viability, the medium was replaced with fresh medium containing 10% MTS and incubated for 6 hours at 37° C. and the sample absorbance was measured with a microplate reader (Molecular Devices, San Jose, Calif.) at a wavelength of 490 nm.

T1 sequence (P02769 25-607): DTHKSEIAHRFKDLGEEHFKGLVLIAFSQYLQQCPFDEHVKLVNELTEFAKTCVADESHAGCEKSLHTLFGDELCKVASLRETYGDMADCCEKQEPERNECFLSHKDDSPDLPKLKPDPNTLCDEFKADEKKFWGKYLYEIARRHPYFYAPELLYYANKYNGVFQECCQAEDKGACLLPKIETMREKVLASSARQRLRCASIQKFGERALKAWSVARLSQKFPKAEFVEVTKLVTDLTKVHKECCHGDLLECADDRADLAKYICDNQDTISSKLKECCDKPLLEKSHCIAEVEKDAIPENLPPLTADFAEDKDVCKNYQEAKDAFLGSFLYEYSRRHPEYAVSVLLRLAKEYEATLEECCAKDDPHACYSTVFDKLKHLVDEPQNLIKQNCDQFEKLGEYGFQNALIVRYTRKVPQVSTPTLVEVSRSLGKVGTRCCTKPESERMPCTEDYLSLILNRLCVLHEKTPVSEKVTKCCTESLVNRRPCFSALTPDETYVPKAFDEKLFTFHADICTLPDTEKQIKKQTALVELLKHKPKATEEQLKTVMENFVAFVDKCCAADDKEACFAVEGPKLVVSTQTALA

Substance: BSA-P0.5SPCP NPs: BSA grafted to P0.5SPCP NPs
- CD spectrum of grafted BSA compared with free BSA: close to that of free BSA

Substance: BSA-P2SPCP NPs: BSA grafted to P2SPCP NPs
- CD spectrum of grafted BSA compared with free BSA: slight change

Substance: BSA-P5SPCP: BSA grafted to P5SPCP NPs
- CD spectrum of grafted BSA compared with free BSA: substantially different

Substance: BSA-P7.5SPCP: BSA grafted to P7.5SPCP NPs
- CD spectrum of grafted BSA compared with free BSA: substantially different
